According to patent US20140178389A1 (AbbVie / Abbott, published 2014):

T1: recombinant cynomolgus IL-1β (cynomolgus, UniProt P79182 117-268)
T1 construct: It was biotinylated in the ELISA and in the yeast display experiments; also called Cyno IL-1β; Cyno IL-1beta
T1 sequence (looked up): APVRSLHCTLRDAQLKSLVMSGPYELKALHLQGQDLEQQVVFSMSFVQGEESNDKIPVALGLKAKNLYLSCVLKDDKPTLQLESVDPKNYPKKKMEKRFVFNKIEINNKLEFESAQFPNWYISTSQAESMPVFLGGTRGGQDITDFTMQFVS


Key:
recombinant human IL-1β = molecular target: T2, recombinant human IL-1β (human, UniProt P01584 117-269); assay: indirect ELISA: mAb captured on goat anti-human IgG, biotinylated IL-1β titrated
T2 construct: It was biotinylated in the ELISA and in the yeast display experiments; also called Hu IL-1beta; huIL-1b
Protocol: (§1) An indirect ELISA was performed to assess the relative affinity of the affinity matured h1B12.1 mAbs to a human chimeric version of the murine 1B12 mAb. An ELISA plate was coated with goat anti-human IgG (Jackson Immunoresearch cat#109-005-098) at 0.5 ug/mL overnight. The plate was blocked with 5% milk for 1 hour and washed three times with TPBS. Affinity-matured h1B12.1 antibodies and human IgG control (Sigma cat#12511) were incubated on the plate for 30 min at 0.2 μg/mL and then the plates were washed three times. A titration of biotinylated human IL-1β or biotinylated cyno IL-1β was added to the plate, starting at 10 nM and decreasing in concentration following a series of 1:3 dilutions. Binding of biotinylated IL-1β was detected with a 1:10000 dilution of peroxidase-conjugated streptavidin (Jackson Immunoresearch cat#016-030-084) and TMB substrate (Invitrogen). The data were fit in Graphpad prism to determine the EC₅₀ values.

[1] = molecular target: T1, recombinant cynomolgus IL-1β; assay: as above
Protocol: as §1

Row | EC50 (recombinant human IL-1β) [nM] | EC50 [1] [nM] | Binder
1 | 0.031 | 0.026 | h1B12-AM1, affinity-matured h1B12.1 IgG1/k mut (234,235) mAb (scFv clone 13) (antibody, V domains shown, also called PR-1354589) VH: EVQLQESGPGLVKPSETLSLTCTVSGFSLSDYGVSWIRQPPGKGLEWIGLIWGSGDTYYNSPLKSRLTISKDNSKSQVSLKLSSVTAADTAVYYCAKQTNIWAYDLYSMDYWGQGTLVTVSS VL: DIQMTQSPSSLSASVGDRVTITCQTSTDIDDDLNWYQQKPGKAPKLLISLASTLRPGVPSRFSGSGSGTDFTFTISSLQPEDFATYYCLQSDRLPLTFGQGTKLEIKR
2 | 0.026 | 0.034 | h1B12-AM2, affinity-matured h1B12.1 IgG1/k mut (234,235) mAb (scFv clone 21) (antibody, V domains shown, also called PR-1354591) VH: EVQLQESGPGLVKPSETLSLTCTVSGFSLSEFGVSWIRQPPGKGLEWIGLIWGGGDTYYNSPLKSRLTISKDNSKSQVSLKLSSVTAADTAVYYCAKQRNLWAYDLYGMDYWGQGTLVTVSS VL: DIQMTQSPSSLSASVGDRVTITCQTSQDIDMDLNWYQQKPGKAPKLLISQGSTLWPGVPSRFSGSGSGTDFTFTISSLQPEDFATYYCLQTDSFPLTFGQGTKLEIKR
3 | 0.031 | 0.025 | h1B12-AM4, affinity-matured h1B12.1 IgG1/k mut (234,235) mAb (scFv clone A1) (antibody, V domains shown, also called PR-1354594) VH: EVQLQESGPGLVKPSETLSLTCTVSGFSLRDYGVSWIRQPPGKGLEWLGLIWGSGDTYYNSPLKSRLTISKDTSKSQVSLKLSSVTAADTAVYYCAKQTNIWGYDLYGMDYWGQGTLVTVSS VL: DIQMTQSPSSLSASVGDRVTITCQASQDIDMDLNWYQQKPGKAPKLLISQANTLPPGVPSRFSGSGSGTDFTFTISSLQPEDFATYYCLQSDWLPLTFGQGTKLEIKR
4 | 0.033 | 0.032 | h1B12-AM3, affinity-matured h1B12.1 IgG1/k mut (234,235) mAb (scFv clone 34) (antibody, V domains shown, also called PR-1354592) VH: EVQLQESGPGLVKPSETLSLTCTVSGFSLSDYGVSWIRQPPGKGLEWIGLIWGSGDTYYNSPLKSRLTISKDTSKSQVSLKLSSVTAADTAVYYCAKQTNLWAYDLYSMDYWGQGTLVTVSS VL: DIQMTQSPSSLSASVGDRVTITCQASQDIDDDLNWYQQKPGKAPKLLISLASILRPGVPSRFSGSGSGTDFTFTISSLQPEDFATYYCLQSDSFPLTFGQGTKLEIKR
